Legend:
Test in all cases: fluorescence polarization; 5 mM Mg2+; FP: 20 mM HEPES-KOH pH 7.5, 200 mM NaCl, 5 mM MgCl2, 0.01 mg/ml E. coli total tRNA, 0.01% NP-40, 10 pM probe, 25 C; EMSA: 20 mM HEPES-KOH pH 7.5, 200 mM NaCl, 5
RsAgo WT = biological target: T1, RsAgo WT (Rhodobacter sphaeroides (ATCC 17025D-5), UniProt A4WYU7 1-777)
T1 sequence: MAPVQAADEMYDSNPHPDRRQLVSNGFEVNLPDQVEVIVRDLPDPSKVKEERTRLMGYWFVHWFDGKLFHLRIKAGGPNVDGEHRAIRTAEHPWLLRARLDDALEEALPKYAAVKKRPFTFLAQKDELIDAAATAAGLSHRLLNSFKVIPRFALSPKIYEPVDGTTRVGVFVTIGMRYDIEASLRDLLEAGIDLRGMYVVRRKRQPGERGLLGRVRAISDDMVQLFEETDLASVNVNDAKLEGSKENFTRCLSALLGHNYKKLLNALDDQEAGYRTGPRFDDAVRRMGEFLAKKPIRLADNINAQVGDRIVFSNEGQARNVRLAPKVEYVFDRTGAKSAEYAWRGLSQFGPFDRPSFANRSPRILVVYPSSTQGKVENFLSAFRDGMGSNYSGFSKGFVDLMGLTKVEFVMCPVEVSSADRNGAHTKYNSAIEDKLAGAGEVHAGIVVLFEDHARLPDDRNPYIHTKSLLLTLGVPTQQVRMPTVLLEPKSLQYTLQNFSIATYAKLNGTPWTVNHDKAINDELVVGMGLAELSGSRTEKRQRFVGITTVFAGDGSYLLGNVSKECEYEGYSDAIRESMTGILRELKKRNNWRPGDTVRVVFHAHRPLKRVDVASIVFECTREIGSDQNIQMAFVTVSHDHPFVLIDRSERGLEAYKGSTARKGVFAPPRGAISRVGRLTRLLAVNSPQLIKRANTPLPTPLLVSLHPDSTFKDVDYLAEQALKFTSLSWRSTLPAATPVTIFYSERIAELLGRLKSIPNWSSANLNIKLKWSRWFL

RsAgo K506A = biological target: T2, RsAgo K506A (Rhodobacter sphaeroides (ATCC 17025D-5), UniProt A4WYU7 1-777, K506A)
T2 sequence: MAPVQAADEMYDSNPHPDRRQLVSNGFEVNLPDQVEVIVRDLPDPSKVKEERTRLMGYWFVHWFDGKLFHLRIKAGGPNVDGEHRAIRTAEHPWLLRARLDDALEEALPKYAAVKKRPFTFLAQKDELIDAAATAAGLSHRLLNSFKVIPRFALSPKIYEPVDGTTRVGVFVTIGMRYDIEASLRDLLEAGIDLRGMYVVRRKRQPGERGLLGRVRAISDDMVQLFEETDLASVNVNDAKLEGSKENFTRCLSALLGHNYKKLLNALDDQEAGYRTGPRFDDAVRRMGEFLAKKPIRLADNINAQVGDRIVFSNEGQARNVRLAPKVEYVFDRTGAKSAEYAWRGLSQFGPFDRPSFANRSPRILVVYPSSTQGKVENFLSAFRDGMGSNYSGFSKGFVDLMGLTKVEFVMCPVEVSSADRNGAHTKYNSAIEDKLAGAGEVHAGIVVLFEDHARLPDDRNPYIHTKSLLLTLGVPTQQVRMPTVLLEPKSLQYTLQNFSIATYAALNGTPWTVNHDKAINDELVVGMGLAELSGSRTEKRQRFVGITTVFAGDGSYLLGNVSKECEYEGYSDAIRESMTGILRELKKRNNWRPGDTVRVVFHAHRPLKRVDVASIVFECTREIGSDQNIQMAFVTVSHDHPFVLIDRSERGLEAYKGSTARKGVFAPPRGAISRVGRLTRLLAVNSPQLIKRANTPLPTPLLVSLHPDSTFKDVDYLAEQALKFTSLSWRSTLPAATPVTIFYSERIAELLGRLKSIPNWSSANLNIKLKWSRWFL

RsAgo R481A/T484A = biological target: T3, RsAgo R481A/T484A (Rhodobacter sphaeroides (ATCC 17025D-5), UniProt A4WYU7 1-777, R481A;T484A)
T3 sequence: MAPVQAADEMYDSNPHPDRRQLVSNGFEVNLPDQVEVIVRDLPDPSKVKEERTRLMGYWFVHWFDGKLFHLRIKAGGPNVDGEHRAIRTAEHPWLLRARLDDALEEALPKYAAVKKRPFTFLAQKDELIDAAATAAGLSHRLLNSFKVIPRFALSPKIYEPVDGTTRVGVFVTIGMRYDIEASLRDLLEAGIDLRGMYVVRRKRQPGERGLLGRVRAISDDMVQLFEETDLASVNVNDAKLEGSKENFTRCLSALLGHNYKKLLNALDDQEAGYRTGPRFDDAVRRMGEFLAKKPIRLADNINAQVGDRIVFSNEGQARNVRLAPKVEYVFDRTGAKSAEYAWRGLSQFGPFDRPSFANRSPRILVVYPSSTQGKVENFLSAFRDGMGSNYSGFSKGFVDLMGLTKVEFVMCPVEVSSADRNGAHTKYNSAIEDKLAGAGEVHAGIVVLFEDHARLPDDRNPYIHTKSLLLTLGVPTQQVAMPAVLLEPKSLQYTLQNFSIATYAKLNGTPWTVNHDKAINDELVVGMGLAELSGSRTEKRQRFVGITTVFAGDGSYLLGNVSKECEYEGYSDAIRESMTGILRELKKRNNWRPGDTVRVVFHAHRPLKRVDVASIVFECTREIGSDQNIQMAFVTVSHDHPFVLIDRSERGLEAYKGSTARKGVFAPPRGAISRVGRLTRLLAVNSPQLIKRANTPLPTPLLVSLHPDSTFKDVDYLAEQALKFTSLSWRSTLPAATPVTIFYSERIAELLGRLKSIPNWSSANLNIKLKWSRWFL

Q: What does the source list for UUACAACCUACUACCUCG (ssRNA, 5'-phosphate) [5'P-RNA (5'U-RNA), FAM]?
A: Kd (RsAgo WT): 0.91 ± 0.06 nM; Kd (RsAgo K506A): 1030 ± 47 nM; Kd (RsAgo R481A/T484A): 718 ± 36 nM

Reference: PMC4919518
